Biological target: MalFGK2 (Escherichia coli, UniProt P02916+P68183+P68187)
Format: biochemical

Row | Compound | stimulation of MBP-dependent ATPase activity by maltose (transporter reconstituted in nanodiscs) | ATPase activity in the absence of MBP (MalFGK2 in nanodiscs) | basal ATPase activity (in detergent, absence of MBP)
1 | OC[C@H]1O[C@H](O[C@H]2[C@H](O)[C@@H](O)C(O)O[C@@H]2CO)[C@H](O)[C@@H](O)[C@@H]1O (mixture of isomers) [maltose, reference compound] | about 10 fold | – | –
2 | MalFGK2: E. coli maltose ABC transporter complex: MalF, MalG and MalK dimer | – | did not exhibit any detectable ATPase activity | ~ 122 nmol/min/mg

Source: PMC4715599 (Molecular microbiology, 2015)
